Here are results for one molecule from paper PMC10897489.

In data set [1] the target is SARS-CoV-2 N protein (NCAP_SARS2) (SARS-CoV-2, UniProt P0DTC9 1-419). Nature of the data set: ITC. The note with it: protein: recombinant; chain copies: 2.
The target of data set [2] is FXR1 215-360 (KH1-KH2) (UniProt P51114 215-360). Nature of the data set: ITC; ITC: 50 mM sodium phosphate pH 7.5, 150 mM NaCl, 0.5 mM TCEP, 25 °C. The note with it: protein: recombinant; tags: His or GST (not specified which).

B1: NF1 RNA (ssRNA)
RNA: GGAUCAUUUUGUUGGACUCAAUUUCAACUCUAACUUUAACUUUGCAUUGGUUGGACACCU
Take B1: the Kd (usually a measure of binding affinity in units of concentration) in data set [1] is 0.38 ± 0.04 µM. Also, the binding result in data set [2] is reported as “no binding”.
